The record followed here is patent publication US20240124519A1.

The target of this test is non-covalent complex of the soluble extracellular domain of human neonatal Fc receptor (FcRn) with C-terminal His-Avi Tag and human beta-2-microglobulin, biotinylated (human) (UniProt P55899). Nature of the test: FcRn affinity chromatography, Fc part after IdeS cleavage and preparative SEC.
Chain of non-covalent complex of the soluble extracellular domain of human neonatal Fc receptor (FcRn) with C-terminal His-Avi Tag and human beta-2-microglobulin, biotinylated (human) (P55899 other isoform, or with tags, fused parts or gaps limits assumed, chain 1 of 2): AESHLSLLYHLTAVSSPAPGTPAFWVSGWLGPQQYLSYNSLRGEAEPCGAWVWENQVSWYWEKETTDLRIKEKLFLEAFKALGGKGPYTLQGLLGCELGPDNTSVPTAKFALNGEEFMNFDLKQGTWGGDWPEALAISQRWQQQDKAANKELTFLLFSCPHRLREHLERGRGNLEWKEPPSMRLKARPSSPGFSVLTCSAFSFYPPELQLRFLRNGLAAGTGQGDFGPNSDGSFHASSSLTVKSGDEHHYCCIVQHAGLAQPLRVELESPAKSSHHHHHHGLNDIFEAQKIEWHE
Chain of non-covalent complex of the soluble extracellular domain of human neonatal Fc receptor (FcRn) with C-terminal His-Avi Tag and human beta-2-microglobulin, biotinylated (human) (b2m, as listed by the source limits assumed, chain 2 of 2): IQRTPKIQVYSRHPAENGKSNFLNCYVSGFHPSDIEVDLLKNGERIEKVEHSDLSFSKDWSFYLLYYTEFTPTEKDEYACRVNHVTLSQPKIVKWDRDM

Substance “Fc part of anti-Abeta antibody (YTE mutant)” returned a retention time of 52 min.
